{
  "source": "patent US12539335B2",
  "about": "“Tricyclic polypeptide conjugated drug and use thereof” (CONJUSTAR (ZHUHAI) BIOLOGICS CO., LTD., priority 2021, dated 2026)",
  "assay": "Metabolic stability in hepatocytes, Cynomolgus macaques",
  "type": "in vitro ADME",
  "details": "cynomolgus macaque, hepatocytes (cryopreserved, suspension), 0.5×10^6 cells/mL",
  "experimental": "Test Example 7: Metabolic Stability of the Compounds of the Present Invention in Hepatocytes from Mice, Rats, Cynomolgus Macaques, and Humans\nTo investigate the metabolic stability of the compounds of the present invention in hepatocytes from mice, rats, Cynomolgus macaques, and humans.\nIncubations were performed in 96-well plates using an external extraction method. Several 96-well sample precipitation plates, designated T0, T15, T30, T60, T90, TO-MC, T90-MC, and blank matrix, were prepared, respectively. The recovery culture medium and incubation culture medium were removed in advance and placed in a 37° C. water bath for preheating. […]\nAt the end of the incubation at the corresponding time point, the incubation plates were removed, from which 25 μL of a compound mixture with the cells and a control compound mixture with the cells were removed and added to sample plates containing 125 μL of stop buffer, respectively. […] All samples were mixed uniformly and then analyzed by the LC-MS/MS method.\nThe concentration of the compound to be tested and the concentration of the control in the sample were semi-quantitatively determined by the liquid chromatography-tandem mass spectrometry (LC-MS/MS) method without a standard curve and quality control sample. […]",
  "note": "Where a name gives a salt, the structure may show the parent alone. Starred links: 1 amine or outer side, 2 acyl side, 3 side chain; linkers in the order of their positions; H or OH if unused. Positions of bridges follow the written chain, without caps; N, C: chain ends. Non-standard residues stand in square brackets, D forms with d. Residues, ends and D or L forms follow the SMILES beside them. Chains are numbered I, II in the order given. *: point of attachment. TATA = O=C(CC[*:1])N1CN(C(=O)CC[*:2])CN(C(=O)CC[*:3])C1; Dolaproine = CO[C@@H]([C@@H]1CCCN1)[C@@H](C)C(=O)O; Dil = CC[C@H](C)[C@H](NC)[C@@H](CC(=O)O)OC; 1Nal = N[C@@H](Cc1cccc2ccccc12)C(=O)O; X2 = O=C(CCCC(=O)[*:2])NCCC(=O)[*:1]; PABC = O=C(OCc1ccc(N[*:1])cc1)[*:2]; X1 = C[C@@H](N*)[C@@H](O)c1ccccc1; Hyp = O=C(O)[C@@H]1C[C@@H](O)CN1; hArg = N=C(N)NCCCC[C@H](N)C(=O)O; Cit = NC(=O)NCCC[C@H](N)C(=O)O; Pen = CC(C)(S)[C@H](N)C(=O)O; NMeV = CN[C@H](C(=O)O)C(C)C; Sar = CNCC(=O)O",
  "data": [
    {"smiles": "CC[C@H](C)[C@@H]([C@@H](CC(=O)N1CCC[C@H]1[C@H](OC)[C@@H](C)C(=O)N[C@H](C)[C@@H](O)c1ccccc1)OC)N(C)C(=O)[C@@H](NC(=O)[C@H](C(C)C)N(C)C(=O)OCc1ccc(NC(=O)[C@H](CCCNC(N)=O)NC(=O)[C@@H](NC(=O)CCCC(=O)NCCC(=O)N(C)CC(=O)N(C)CC(=O)N(C)CC(=O)N(C)CC(=O)N(C)CC(=O)N(C)CC(=O)N(C)CC(=O)N(C)CC(=O)N(C)CC(=O)N(C)CC(=O)N[C@H]2CCCCNC(=O)C[C@@H](C(=O)N[C@H]3CSCCC(=O)N4CN5CN(C4)C(=O)CCSC(C)(C)[C@H](NC(=O)[C@@H](CC(=O)O)NC(=O)[C@H](Cc4cccc6ccccc46)NC(=O)[C@@H]4CCCN4C3=O)C(=O)N[C@@H](CCSC)C(=O)N[C@@H](CCCCNC(=N)N)C(=O)N[C@@H](CC(=O)O)C(=O)N[C@@H](Cc3c[nH]c4ccccc34)C(=O)N[C@@H](CO)C(=O)N[C@@H]([C@@H](C)O)C(=O)N3CCC[C@H]3C(=O)N3C[C@H](O)C[C@H]3C(=O)N[C@@H](Cc3c[nH]c4ccccc34)C(=O)N[C@H](C(N)=O)CSCCC5=O)NC(=O)CN(C)C2=O)C(C)C)cc1)C(C)C", "note": "[Acetate salt of PDC_2] (I: [Sar][Sar][Sar][Sar][Sar][Sar][Sar][Sar][Sar][Sar]K[Sar]DCP[1Nal][dD][Pen]M[hArg]DWSTP[Hyp]WC-NH2 / II: V[Cit][PABC][NMeV]V[Dil][Dolaproine]-X1; lactam I:11-I:13; linker I:14-I:18-I:28 via TATA; linker I:N-II:N via X2)", "values": [
      {"measurement": "half-life at 1 μM", "result": "> 3.61", "unit": "h"},
      {"measurement": "CLint scaled at 1 μM", "setting": "read-out: CLint (liver)", "result": "< 23", "unit": "mL/min/kg"}
    ]}
  ]
}
